Source: patent US20240002531A1 (ONO PHARMACEUTICAL, published 2024)
Blank lines part the entries; values can stand above or below the binder they belong to.

Assays:
[1] = target: T1, L608A peptide (HER2 603-622 with L608A) (human); assay: SPR Biacore, mAb on chip, peptide analyte, 1:1 fit;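 note: where kon or koff could not be resolved by kinetic fitting, Kd comes instead from steady-state equilibrium analysis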
T1 peptide: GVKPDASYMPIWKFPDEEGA

[2] = target: T2, G603A peptide (HER2 603-622 with G603A) (human); assay: SPR Biacore, mAb on chip, peptide analyte, 1:1 fit;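 note: where kon or koff could not be resolved by kinetic fitting, Kd comes instead from steady-state equilibrium analysis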
T2 peptide: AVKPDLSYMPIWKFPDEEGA

[3] = target: T3, S609A peptide (HER2 603-622 with S609A) (human); assay: SPR Biacore, mAb on chip, peptide analyte, 1:1 fit;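 note: where kon or koff could not be resolved by kinetic fitting, Kd comes instead from steady-state equilibrium analysis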
T3 peptide: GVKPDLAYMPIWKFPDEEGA

[4] = target: T4, P612A peptide (HER2 603-622 with P612A) (human); assay: SPR Biacore, mAb on chip, peptide analyte, 1:1 fit;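 note: where kon or koff could not be resolved by kinetic fitting, Kd comes instead from steady-state equilibrium analysis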
T4 peptide: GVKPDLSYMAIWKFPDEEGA

[5] = target: T5, Y610A peptide (HER2 603-622 with Y610A) (human); assay: SPR Biacore, mAb on chip, peptide analyte, 1:1 fit
T5 peptide: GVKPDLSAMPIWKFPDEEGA

[6] = target: T6, E619A peptide (HER2 603-622 with E619A) (human); assay: SPR Biacore, mAb on chip, peptide analyte, 1:1 fit
T6 peptide: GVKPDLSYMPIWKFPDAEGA

[7] = target: T7, P606A peptide (HER2 603-622 with P606A) (human); assay: SPR Biacore, mAb on chip, peptide analyte, 1:1 fit
T7 peptide: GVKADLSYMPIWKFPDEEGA

[8] = target: T8, E620A peptide (HER2 603-622 with E620A) (human); assay: SPR Biacore, mAb on chip, peptide analyte, 1:1 fit
T8 peptide: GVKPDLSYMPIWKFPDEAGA

[9] = target: T9, V604A peptide (HER2 603-622 with V604A) (human); assay: SPR Biacore, mAb on chip, peptide analyte, 1:1 fit
T9 peptide: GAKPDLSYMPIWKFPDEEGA

[10] = target: T10, P617A peptide (HER2 603-622 with P617A) (human); assay: SPR Biacore, mAb on chip, peptide analyte, 1:1 fit
T10 peptide: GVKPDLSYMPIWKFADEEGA

[11] = target: T11, M611A peptide (HER2 603-622 with M611A) (human); assay: SPR Biacore, mAb on chip, peptide analyte, 1:1 fit
T11 peptide: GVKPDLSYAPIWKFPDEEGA

[12] = target: T12, K605A peptide (HER2 603-622 with K605A) (human); assay: SPR Biacore, mAb on chip, peptide analyte, 1:1 fit
T12 peptide: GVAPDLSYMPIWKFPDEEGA

[13] = target: T13, G621A peptide (HER2 603-622 with G621A) (human); assay: SPR Biacore, mAb on chip, peptide analyte, 1:1 fit
T13 peptide: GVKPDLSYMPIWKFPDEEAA

[14] = target: T14, HER2 peptide p603-622 (amino acids 603 to 622 of human HER2) (human); assay: SPR Biacore, mAb on chip, peptide analyte, 1:1 fit
T14 construct: Synthetic peptide; also called wild-type HER2 peptide
T14 peptide: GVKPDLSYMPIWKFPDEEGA

HER2 peptide p614-621 = target: T15, HER2 peptide p614-621 (human); assay: SPR Biacore, mAb on chip, peptide analyte, equilibrium analysis
T15 peptide: WKFPDEEG

HER2 peptide p614-620 = target: T16, HER2 peptide p614-620 (human); assay: as above
T16 peptide: WKFPDEE

HER2 peptide p613-620 = target: T17, HER2 peptide p613-620 (human); assay: SPR Biacore, mAb on chip, peptide analyte, 1:1 fit;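 note: all binding measurements run at 25 °C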
T17 peptide: IWKFPDEE

HER2 peptide p612-619 = target: T18, HER2 peptide p612-619 (human); assay: SPR Biacore, mAb on chip, peptide analyte, 1:1 fit;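 note: all binding measurements run at 25 °C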
T18 peptide: PIWKFPDE

HER2 peptide p611-619 = target: T19, HER2 peptide p611-619 (human); assay: SPR Biacore, mAb on chip, peptide analyte, 1:1 fit;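 note: all binding measurements run at 25 °C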
T19 peptide: MPIWKFPDE

HER2 peptide p610-622 = target: T20, HER2 peptide p610-622 (human); assay: SPR Biacore, mAb on chip, peptide analyte, 1:1 fit;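 note: all binding measurements run at 25 °C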
T20 peptide: YMPIWKFPDEEGA

HER2 peptide p612-622 = target: T21, HER2 peptide p612-622 (human); assay: SPR Biacore, mAb on chip, peptide analyte, 1:1 fit;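 note: all binding measurements run at 25 °C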
T21 peptide: PIWKFPDEEGA

HER2 peptide p614-622 = target: T22, HER2 peptide p614-622 (human); assay: SPR Biacore, mAb on chip, peptide analyte, 1:1 fit;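 note: all binding measurements run at 25 °C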
T22 peptide: WKFPDEEGA

HER2 peptide p611-622 = target: T23, HER2 peptide p611-622 (human); assay: SPR Biacore, mAb on chip, peptide analyte, 1:1 fit
T23 peptide: MPIWKFPDEEGA

Kd [1]: 8.79 nM
koff [1]: 0.000431 s⁻¹
kon [1]: 49100 M⁻¹ s⁻¹
Kd [2]: 5.87 nM
koff [2]: 0.00043 s⁻¹
kon [2]: 73300 M⁻¹ s⁻¹
Kd [3]: 6.51 nM
koff [3]: 0.000394 s⁻¹
kon [3]: 60600 M⁻¹ s⁻¹
Kd [4]: 9.54 nM
koff [4]: 0.000609 s⁻¹
kon [4]: 63800 M⁻¹ s⁻¹
Kd [5]: 7.9 nM
koff [5]: 0.000451 s⁻¹
kon [5]: 57100 M⁻¹ s⁻¹
Kd [6]: 6.29 nM
koff [6]: 0.000465 s⁻¹
kon [6]: 73900 M⁻¹ s⁻¹
Kd [7]: 5.34 nM
koff [7]: 0.000393 s⁻¹
kon [7]: 73600 M⁻¹ s⁻¹
Kd [8]: 7.98 nM
koff [8]: 0.000455 s⁻¹
kon [8]: 57100 M⁻¹ s⁻¹
Kd [9]: 6.54 nM
koff [9]: 0.000399 s⁻¹
kon [9]: 61000 M⁻¹ s⁻¹
Kd [10]: 207 nM
koff [10]: 0.00914 s⁻¹
kon [10]: 44100 M⁻¹ s⁻¹
Kd [11]: 7.45 nM
koff [11]: 0.000445 s⁻¹
kon [11]: 59700 M⁻¹ s⁻¹
Kd [12]: 6.45 nM
koff [12]: 0.000346 s⁻¹
kon [12]: 53600 M⁻¹ s⁻¹
Kd [13]: 6.91 nM
koff [13]: 0.000399 s⁻¹
kon [13]: 57800 M⁻¹ s⁻¹
Kd [14]: 5.8 nM
koff [14]: 0.00037 s⁻¹
kon [14]: 63900 M⁻¹ s⁻¹
Kd (HER2 peptide p614-621): 26600 nM
Kd (HER2 peptide p614-620): 26400 nM
B1: H2Mab-250 antibody (antibody, V domains shown)
VH: EVQLVESGGGLVQPGGSLKLSCAASGFTFSNYGMSWVRQTPDRRLELVATINNNGGGTYYPDSVKGRFTISRDNAKNTLYLQMSSLKSEDTAMYYCTSPGLLWDAWGAGTTVTVSS
VL: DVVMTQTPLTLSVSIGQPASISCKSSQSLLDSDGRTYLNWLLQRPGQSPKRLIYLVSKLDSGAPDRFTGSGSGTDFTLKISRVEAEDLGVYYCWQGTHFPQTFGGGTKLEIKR
notes: Mouse monoclonal from a hybridoma (immunogen HER2ec made in LN229 cells); also called antibody of the present invention

Kd (HER2 peptide p613-620): 2310 nM
koff (HER2 peptide p613-620): 0.01 s⁻¹
kon (HER2 peptide p613-620): 4340 M⁻¹ s⁻¹
Kd (HER2 peptide p612-619): 22.2 nM
koff (HER2 peptide p612-619): 0.0235 s⁻¹
kon (HER2 peptide p612-619): 1.06e+06 M⁻¹ s⁻¹
Kd (HER2 peptide p611-619): 11.1 nM
koff (HER2 peptide p611-619): 0.0083 s⁻¹
kon (HER2 peptide p611-619): 747000 M⁻¹ s⁻¹
Kd (HER2 peptide p610-622): 38.8 nM
koff (HER2 peptide p610-622): 0.00598 s⁻¹
kon (HER2 peptide p610-622): 154000 M⁻¹ s⁻¹
Kd (HER2 peptide p612-622): 39.7 nM
koff (HER2 peptide p612-622): 0.0244 s⁻¹
kon (HER2 peptide p612-622): 615000 M⁻¹ s⁻¹
Kd (HER2 peptide p614-622): 26400 nM
koff (HER2 peptide p614-622): 0.0115 s⁻¹
kon (HER2 peptide p614-622): 435 M⁻¹ s⁻¹
Kd (HER2 peptide p611-622): 23.9 nM
koff (HER2 peptide p611-622): 0.0108 s⁻¹
kon (HER2 peptide p611-622): 451000 M⁻¹ s⁻¹
B2: H2Mab-214 antibody (antibody, V domains shown)
VH: QVTLKESGPGILQPSQTLSLTCSFSGFSLSTSGMGVSWIRQPSGKGLEWLAHIFWDDDKRYNPSLKSRLTISKDTSRNKVFLKITSVDTADTATYYCARRVVATDWYFDVWGAGTTVTVSS
VL: DIVLTQSPASLAVSLGQRATISCRASESVEYYGTTLMQWYQQKPGQPPKLLIYAASKVESGVPARFSGSGSGTDFSLNIHPVEEDDVAMYFCQQSRKVPLTFGAGTKLELKR
notes: as for B1
